Measured values: article doi:10.1101/2025.07.07.663466

Molecular target: T1, recombinant M. tuberculosis GroEL1 (M. tuberculosis), P9WPE9
T1 chain: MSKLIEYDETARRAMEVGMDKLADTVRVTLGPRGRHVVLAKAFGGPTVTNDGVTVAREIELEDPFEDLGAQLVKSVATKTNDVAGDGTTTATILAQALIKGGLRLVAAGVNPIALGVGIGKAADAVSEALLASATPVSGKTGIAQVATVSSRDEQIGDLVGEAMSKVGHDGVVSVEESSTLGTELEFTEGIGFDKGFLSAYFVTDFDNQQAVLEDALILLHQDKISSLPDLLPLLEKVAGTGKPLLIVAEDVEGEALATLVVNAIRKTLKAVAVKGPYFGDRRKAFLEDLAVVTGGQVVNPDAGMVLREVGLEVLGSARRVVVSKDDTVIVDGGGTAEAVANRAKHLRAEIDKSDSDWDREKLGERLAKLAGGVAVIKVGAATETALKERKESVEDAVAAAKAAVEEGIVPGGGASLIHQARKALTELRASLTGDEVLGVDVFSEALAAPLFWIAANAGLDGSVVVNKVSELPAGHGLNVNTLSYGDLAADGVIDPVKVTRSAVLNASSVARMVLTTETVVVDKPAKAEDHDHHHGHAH
Test: native gel or EMSA
Settings: remark: other sources report otherwise

B1: recombinant M. tuberculosis GroEL1, P9WPE9 1-539 (natural protein)
chain: MSKLIEYDETARRAMEVGMDKLADTVRVTLGPRGRHVVLAKAFGGPTVTNDGVTVAREIELEDPFEDLGAQLVKSVATKTNDVAGDGTTTATILAQALIKGGLRLVAAGVNPIALGVGIGKAADAVSEALLASATPVSGKTGIAQVATVSSRDEQIGDLVGEAMSKVGHDGVVSVEESSTLGTELEFTEGIGFDKGFLSAYFVTDFDNQQAVLEDALILLHQDKISSLPDLLPLLEKVAGTGKPLLIVAEDVEGEALATLVVNAIRKTLKAVAVKGPYFGDRRKAFLEDLAVVTGGQVVNPDAGMVLREVGLEVLGSARRVVVSKDDTVIVDGGGTAEAVANRAKHLRAEIDKSDSDWDREKLGERLAKLAGGVAVIKVGAATETALKERKESVEDAVAAAKAAVEEGIVPGGGASLIHQARKALTELRASLTGDEVLGVDVFSEALAAPLFWIAANAGLDGSVVVNKVSELPAGHGLNVNTLSYGDLAADGVIDPVKVTRSAVLNASSVARMVLTTETVVVDKPAKAEDHDHHHGHAH
For B1, the stoichiometry N was 2.
